Consider 40 sequences from the nanobody polyreactivity screen of Harvey et al. (2022).

The nature of this data set: yeast display, Sf9 membrane polyspecificity reagent, FACS + sequencing; frameworks hold sequencing errors. In a few lines: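 Using colony PCR, genes from sorted yeast display clones were amplified, then sequenced on MiSeq at 2 × 250 and filtered by CDR length. The clones had been stained with 10% biotinylated, detergent-solubilized Sf9 membrane reagent for 1 hour at 4 °C and sorted by FACS into low and high (top ~1%) gates on anti-HA and streptavidin fluorescence. Polyreactivity labels come from the gate of origin.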
For “QVQLVESGGGLVQAGGSLRLICAASGRIFDYYGMGWYRQAPGKETELVATIRRGGSTYYADSVKGRFTISRDNAMNTVYLQMNSLKPEDTAVYYCAAPGYSWYTYRRYDYWGQGTQVTVSS”, the “polyreactivity (PSR sort gate)” value is “high polyreactivity”. As to “QVQLVESGGGLVQAGGSLRLICAASGRIFFHYAMGWYRQAPGKVRELVAVISSTGGITNYADSVKGRFTISRDNAKNTVYLQMNSLKPEDTAVYYCNTVPRPFERYGYWGQGTQVTVSS”, the “polyreactivity (PSR sort gate)” value is on record as “low polyreactivity”. On to “QVQLVESGGGLVQAGGSLRLICAASGRIFKYNAMGWDRQAPGTERELVAAISSSGGSTYYADSVKGRFTISRDNAKYTVYLLMNSLKPEDTAVYYCAARFNSGVYRYDYWGQGTQVTVSS”, for which the “polyreactivity (PSR sort gate)” value is given as “high polyreactivity”. Consider “QVQLVESGGGLVQAGGSLRLICAASGRIFNRNAMGWYRQAPGKERELVASISSGGRTNYADSVKGRFTISRDNAKNTVYLQMNSLKPEDTAVYYCAAKSPRILLDYWGQGTQVTVSS”, for which the “polyreactivity (PSR sort gate)” value was “low polyreactivity”.

With “QVQLVESGGGLVQAGGSLRLICAASGRIFRGYAMGWYRQAPGKERELVAAISGRGGRTNYADSVKGRFTISRDNAKNTVYLQMNSLKPEDTAVYYCATVPYTASRYEYWGQGTQVTVSS”, the “polyreactivity (PSR sort gate)” value was “high polyreactivity”.

“QVQLVESGGGLVQAGGSLRLICAASGRIFRHYAMGWYRQAPGKEREFVAAISRSGGSTYYADSVKGRFTISRDNAKNTVYLQMHSLKPEDTAVYYCYARHRYTGIRFFQPYDYWGQGTQVTVSS”: the “polyreactivity (PSR sort gate)” value is on record as “low polyreactivity”.

Regarding “QVQLVESGGGLVQAGGSLRLICAASGRIFRYNARGWYRQAPGKERELVAAISSGGSTNYADSVKGRFTTSRDNAKNTVYLQMNSLKPEDTAVYYCNAESVHRYPGWGYDYWGQGTQVTVSS”, the “polyreactivity (PSR sort gate)” value is “low polyreactivity”.

As to “QVQLVESGGGLVQAGGSLRLICAASGRIFTAYVMGWYRQAPGKERQLVAAITEGGGNTYYADSVKGRFTISRDNAKNTVYLQMNSLKPEDTAVYYCAARYLVNGRKRLYYWGQGTQVTVSS”, the “polyreactivity (PSR sort gate)” value is given as “high polyreactivity”. In the case of “QVQLVESGGGLVQAGGSLRLICAASGRIFVGNTMGWYRQAPGKERELVAAITSSGGSTYYADSVKGRFTISRDNAKNTVYLQMNSLKPEDTAVYYCAARTREYQWRYYYWGQGTQVTVSS”, the “polyreactivity (PSR sort gate)” value is given as “high polyreactivity”. On to “QVQLVESGGGLVQAGGSLRLICAASGRIFVPYAMGWYRQAPGKERELVAAITYDGGSTYYADSVKGRFTISRDNAKNTVYLQMNSLKPEDTAVYYCAADYGYSQYILGQFRLEELDYWGQGTQVTVSS”, for which the “polyreactivity (PSR sort gate)” value is reported as “low polyreactivity”. The same measure for “QVQLVESGGGLVQAGGSLRLICAASGRIFVRNAMGWSRQAPGKERELVAAITSGGRTYYADSVKGRFTISRDNAQNTVYVQMNSLKPEDTAVYYCAARAGNASAIDVAYWGQGSQVTVSS”: “low polyreactivity”; for “QVQLVESGGGLVQAGGSLRLICAASGRIINGYAMVWYRQAPGKERELVAANSVSGGSTYYADSVKGRFTISRDNAKNTVYLQMNSMKPEDTAVYYCNARIGSRSYAWISTRYDYWGQGNQVTVSS”: “high polyreactivity”. As to “QVQLVESGGGLVQAGGSLRLICAASGRISVFYTMGWYRQAPGKERELVAVIRTSGGRTNYADSVKGRFTISRDNAKNTVYLQMNSLKPEDTAVYYCAARVVRYGYKYYYWGQGTQVTVSS”, the “polyreactivity (PSR sort gate)” value is listed as “low polyreactivity”. With “QVQLVESGGGLVQAGGSLRLICAASGRTFAINTMGWYRQAPGKERELVATISGSAGNTYYADSVKGRFTISRDNAKNTVYVQMNSLKPEDSAVYSCAARQRKARQIVLLDYWGQGTQVTVSS”, the “polyreactivity (PSR sort gate)” value is listed as “high polyreactivity”. The result for “QVQLVESGGGLVQAGGSLRLICAASGRTFARYTMGWYRQARGKERELVASITRGGSTYYADSVKGRFTISRDNAKITVYLQMYSLKPEDSAVYYCNAVYIVGGDWGQGTQVTVSS” reads “high polyreactivity”. On to “QVQLVESGGGLVQAGGSLRLICAASGRTFGKYAMGWYRQAPGKEMQLVAAITRRGGSTFYADSVKGRFRISRDNAKNTVYLQMNSLKPEDTAVYYCAARSTVGPQYGVRFNYWGQGTQVTVSS”, for which the “polyreactivity (PSR sort gate)” value is reported as “high polyreactivity”. The result for “QVQLVESGGGLVQAGGSLRLICAASGRTFILYTMGWYRQAPGKERELVAAITTGGSTSYADSVKGRFTISRDNAKNTVYLQMNSLKPEDTAVYNWAADTVGYSWRWFTWYEMGYWGQGTQVTVSS” reads “low polyreactivity”; that for “QVQLVESGGGLVQAGGSLRLICAASGRTFRFYAMGWYRQAPGKERELVAAINYGGGNTYYADSVKGRFTISRDNAKNTVYLQMNSLKADDTAVYYCAAQYYYRARWFPYDYWGQGTQVTVSS”, “high polyreactivity”. Take “QVQLVESGGGLVQAGGSLRLICAASGRTFRVYAMGWYRQAPGKERELVASISRRGASTYYADSVKGRFTISRDIAKNTVYLQMNSLKPEDTAVYYCAADRRYYSVSPNTEFEYWGQGTQETVSS”: the “polyreactivity (PSR sort gate)” value is “high polyreactivity”. “QVQLVESGGGLVQAGGSLRLICAASGRTFRYYTMGWYRQAPGKEREFVAAISSTGGTYYADSVKGRFTNSRDNAKNTVYFQMNSLKPEDTAVYYWAAYRWGILSAYYYAWYGYWGQGTQVTVSS”: the “polyreactivity (PSR sort gate)” value is given as “low polyreactivity”. The same measure for “QVQLVESGGGLVQAGGSLRLICAASGRTFSSNAMGWYRPAPGNERELVAAISTSGGRTYYADSVKGRCTISRDNAKNTVYLQMNSLKPEDTAVYYGAAEYVGTGTPDDYAYWGQGTQVTVSS”: “high polyreactivity”.

As for “QVQLVESGGGLVQAGGSLRLICAASGRTFVANTMGWYRQAPGKERELVATITWNGGSTYYADSVKGRFTISRDNAKNTVYLQMNSLKPEDTAVYYCAKEAYFRRYYVYRYGYWGQGTQVTVSS”, the “polyreactivity (PSR sort gate)” value is given as “high polyreactivity”. As to “QVQLVESGGGLVQAGGSLRLICAASGRTFYPNAMGWYRPAPGKERELVAAINSGDSTSYADSVKGRFTIARDNAKNTVYLQMNRLKPEDTAVYYCAAAEWYQFFIYRYTYEYWGQGTQVTVSS”, the “polyreactivity (PSR sort gate)” value is “low polyreactivity”. “QVQLVESGGGLVQAGGSLRLICAASGRTFYVNAMGWYRQAPGKERELVATITDRGGRTYYADSVKGRFTISRDNAKNTVYLQMNSLKPEDTAVYYCAATRWYEVDYWGQGTQVTVSS”: the “polyreactivity (PSR sort gate)” value is listed as “low polyreactivity”. For “QVQLVESGGGLVQAGGSLRLICAASGRTVYRYAMGWYRQAPGKERELVAAITTSGGSTYYADSVKGRFTISRDNAKKTVNIQMNSLKPEDTAVYYCARRVYGYYIPYNYWGKGTQVTVSS”, the “polyreactivity (PSR sort gate)” value was “high polyreactivity”.

For “QVQLVESGGGLVQAGGSLRLICAASGRTYRLYAMGWYRQAPGKERELVAAISYSDGRTYYADSVKGRFTISRDNAKNTVYLQMNSLKPEDTALYYCAAETLYVSPYFYVVQYDYWGQGTQVTVSS”, the “polyreactivity (PSR sort gate)” value is reported as “high polyreactivity”. The result for “QVQLVESGGGLVQAGGSLRLICAASGSIFDQNDMGWYRQAPGKERELVAAISSGSSTNYADSVKGRFTISRDNAKNTVYLQMNSLKAEDTAGYYCAVTSPYSQGYSFWGADSREYWGQGTQVTVSS” reads “low polyreactivity”. For the sequence “QVQLVESGGGLVQAGGSLRLICAASGSIFFGNAMGWYRQAPGKERELDAAITLRGGSTYYADSVKGRFTISRDNAKNTVYLQMNSLKPEDTAVYYCNAVSKRYGYGYWGQGTQVTVSS”, the “polyreactivity (PSR sort gate)” value is given as “high polyreactivity”. The result for “QVQLVESGGGLVQAGGSLRLICAASGSIFGDNAMGWYRQAPGKERELVARISSGGNTYYADSVKGRFTISRDNAKNTVYLQMNSLKPEDTAVYYCNVYRYDGDYWGQGTQVTVSS” reads “high polyreactivity”; that for “QVQLVESGGGLVQAGGSLRLICAASGSIFGDTAMAWYSQAPGKERELVATISSSDASTYYADSVKGRFTSSRDNAKNTVYLQMNSVKREDSAVYYCAKEVNAGYHVWYDYWGEGTQVTVSS”, “low polyreactivity”. The same measure for “QVQLVESGGGLVQAGGSLRLICAASGSIFGRYAMGWYRQAPGKETELVAAINDDSGRTYYADSVKGRFTISRDNAKNTVYLQMNSLKPEDTAVYYCAADGYVLWYSFDYWGQGTLVTVSS”: “high polyreactivity”; for “QVQLVESGGGLVQAGGSLRLICAASGSIFGYNAMGWYRQAPGKERELVAAIRISTDNTYYADSVKGRFTISRDNAKNTVYLQMNSLKPEDTAVYYCAASSQTQYGDNYWGQGTQVTVSS”: “high polyreactivity”; for “QVQLVESGGGLVQAGGSLRLICAASGSIFGYYAMGWYRQAPGKERELVAAISYSGSRTYYADSVKGRFTISRDNAKNTVYLQMNSLKPEDTAVYYCAARGSRLYSSWRGDYWGQGTQVTVSS”: “high polyreactivity”. On to “QVQLVESGGGLVQAGGSLRLICAASGSIFIRNAMGWYRQAPGKERELVAAITSRGGSTYYADSVKGRFTISRDNAKNTVFLQMNSLKPEDTAVYYCARRYYGLYDYWGQGTQVTVSS”, for which the “polyreactivity (PSR sort gate)” value is “low polyreactivity”. On to “QVQLVESGGGLVQAGGSLRLICAASGSIFISYAMGWYRQAPGKERELVAAISSGGSTNYADSVKGRFTISRDNAKNTVYLQMNSLKPEDTAVYYCAADGWLWSFTGDGWWFDYWGQGTQVTVSS”, for which the “polyreactivity (PSR sort gate)” value is recorded as “low polyreactivity”. Consider “QVQLVESGGGLVQAGGSLRLICAASGSIFNGYVMGWYRQAPGKERELVAAISSGGRTYYADSVKGRFTISRDNAKNTVYLQMNSLKPEDTAVYYCAADIWYFDYDYWGQGTQVTVSS”, for which the “polyreactivity (PSR sort gate)” value is “high polyreactivity”.

Turning to “QVQLVESGGGLVQAGGSLRLICAASGSIFPPYAMGWYRQAPGKDREFVAAITISGDSTYYADSVKGRFTISRDNAKNTVYLQMNSLKPEDTAVYYCNADSYAFQYTWGEAYYGLYGYWGQGTQVTVSS”, the “polyreactivity (PSR sort gate)” value was “low polyreactivity”. The same measure for “QVQLVESGGGLVQAGGSLRLICAASGSIFRFYAMGWYRQAPGTERELVAAISKTGGRTYYADSVKGRFTISRDNAKNTFYLQMNSLKPEDTAVYYCAASIREGFYWGQGTQVTVSS”: “high polyreactivity”.

Consider “QVQLVESGGGLVQAGGSLRLICAASGSIFRIYAMGWYRQAPGKEREFVAAISRRGGSTYYADSVKGRFTISRDNAKNTVYLQMNSLKPEDTAVYYCAASGGGSDAYWGQGTQVTVSS”, for which the “polyreactivity (PSR sort gate)” value was “high polyreactivity”.

Consider “QVQLVESGGGLVQAGGSLRLICAASGSIFSVNTMGWYREAPGKERELVATIRTGDSTNYADSVKGRFTISRDNAKNTVYLQMNSLKPEDTAVYYCAAEWSSLNFDYWGQGTQVTVSS”, for which the “polyreactivity (PSR sort gate)” value is on record as “low polyreactivity”.
